Laboratory results reported in patent JP2014043405A (dated 2014).
Positions count from the first letter of the chain named. Numbers in names are those of the source.

T1: ヒトFcγRIIa (H) (human, UniProt P12318 34-217)
T1 construct: extracellular domain; also called FcγRIIa H型
T1 sequence (looked up): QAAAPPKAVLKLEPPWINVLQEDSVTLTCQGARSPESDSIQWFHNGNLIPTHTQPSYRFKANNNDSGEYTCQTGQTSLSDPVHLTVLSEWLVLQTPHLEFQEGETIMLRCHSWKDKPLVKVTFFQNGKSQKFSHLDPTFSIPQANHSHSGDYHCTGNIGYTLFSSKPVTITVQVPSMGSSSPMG

T2: ヒトFcγRIIb (human, UniProt P31994 43-217)
T2 construct: extracellular domain; for the crystals it was expressed with kifunensine and its N-glycans trimmed with Endo F1; also called FcγRIIb細胞外領域
T2 sequence (looked up): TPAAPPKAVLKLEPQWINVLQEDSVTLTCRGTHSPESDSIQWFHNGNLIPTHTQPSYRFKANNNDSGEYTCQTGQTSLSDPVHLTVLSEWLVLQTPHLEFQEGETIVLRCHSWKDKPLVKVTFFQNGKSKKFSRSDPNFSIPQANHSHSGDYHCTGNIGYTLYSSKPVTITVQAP

T3: マウスFcγRI (mouse, UniProt P26151 25-297, limits assumed)
T3 construct: also called mouse FcγRI
T3 sequence (looked up): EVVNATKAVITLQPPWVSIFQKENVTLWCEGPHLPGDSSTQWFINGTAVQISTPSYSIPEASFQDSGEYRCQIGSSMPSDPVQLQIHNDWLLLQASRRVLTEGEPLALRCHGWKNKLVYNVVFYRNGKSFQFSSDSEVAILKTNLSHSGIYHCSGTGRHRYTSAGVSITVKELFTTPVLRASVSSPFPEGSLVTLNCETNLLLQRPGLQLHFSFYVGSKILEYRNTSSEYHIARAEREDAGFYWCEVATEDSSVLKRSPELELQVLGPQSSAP

T4: マウスFcγRIII (mouse, UniProt P08508 31-215, limits assumed)
T4 construct: also called mouse FcγRIII
T4 sequence (looked up): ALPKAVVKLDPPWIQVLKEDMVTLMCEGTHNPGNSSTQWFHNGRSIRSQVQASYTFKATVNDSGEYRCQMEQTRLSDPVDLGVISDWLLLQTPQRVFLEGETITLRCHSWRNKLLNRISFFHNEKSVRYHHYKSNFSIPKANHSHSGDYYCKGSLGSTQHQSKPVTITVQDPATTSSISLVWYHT

T5: マウスFcγRIIb (mouse, UniProt P08101 30-210, limits assumed)
T5 construct: also called mouse FcγRIIb
T5 sequence (looked up): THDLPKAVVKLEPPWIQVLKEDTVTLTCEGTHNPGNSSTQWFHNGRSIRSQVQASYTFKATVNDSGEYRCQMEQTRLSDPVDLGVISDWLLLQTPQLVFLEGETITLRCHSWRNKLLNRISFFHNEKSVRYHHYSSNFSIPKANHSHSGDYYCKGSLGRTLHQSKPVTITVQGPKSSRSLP

B1: IL6R-G4d/IL6R-L (antibody, human IgG4 S228P)
heavy: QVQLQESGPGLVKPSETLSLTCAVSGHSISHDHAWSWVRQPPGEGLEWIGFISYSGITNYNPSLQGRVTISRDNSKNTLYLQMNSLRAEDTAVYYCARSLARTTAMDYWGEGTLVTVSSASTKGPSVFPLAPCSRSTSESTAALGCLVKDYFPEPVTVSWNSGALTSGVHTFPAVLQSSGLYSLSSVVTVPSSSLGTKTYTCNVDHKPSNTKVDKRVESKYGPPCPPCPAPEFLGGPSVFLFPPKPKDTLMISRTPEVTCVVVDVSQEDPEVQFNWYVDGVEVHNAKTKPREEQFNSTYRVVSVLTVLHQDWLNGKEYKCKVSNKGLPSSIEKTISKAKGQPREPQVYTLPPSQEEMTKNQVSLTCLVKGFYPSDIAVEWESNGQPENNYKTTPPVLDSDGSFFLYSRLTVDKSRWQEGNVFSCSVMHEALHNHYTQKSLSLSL
light: DIQMTQSPSSLSASVGDRVTITCRASQDISSYLNWYQQKPGKAPKLLIYYTSRLHSGVPSRFSGSGSGTDFTFTISSLQPEDIATYYCQQGNTLPYTFGQGTKVEIK
B2: IL6R-BP253/IL6R-L (antibody, human IgG1)
heavy: QVQLQESGPGLVKPSETLSLTCAVSGHSISHDHAWSWVRQPPGEGLEWIGFISYSGITNYNPSLQGRVTISRDNSKNTLYLQMNSLRAEDTAVYYCARSLARTTAMDYWGEGTLVTVSSASTKGPSVFPLAPSSKSTSGGTAALGCLVKDYFPEPVTVSWNSGALTSGVHTFPAVLQSSGLYSLSSVVTVPSSSLGTQTYICNVNHKPSNTKVDKKVEPKSCDKTHTCPPCPAPELLGGPSVFLFPPKPKDTLMISRTPEVTCVVVDVEHEDPEVKFNWYVDGVEVHNAKTKPREEQYNSTYRVVSVLTVLHQDWLNGKEYKCKVSNKAFPAPIEKTISKAKGQPREPQVYTLPPSRDELTKNQVSLTCLVKGFYPSDIAVEWESNGQPENNYKTTPPVLDSDGSFFLYSKLTVDKSRWQQGNVFSCSVMHEALHNHYTQESLSLSP
light: B1 light
notes: comparison antibody with the known FcγRIIb-enhancing substitutions
B3: IL6R-BP267/IL6R-LにS267Gの改変が加えられた改変体 (antibody, human IgG1)
heavy: B2 heavy with E235D, G239D, P240D, E269G, H270E, P273G, F330L
light: B1 light
notes: also called IL6R-BP267 + S267G
B4: IL6R-BP458/IL6R-L (antibody, human IgG1)
heavy: B2 heavy with E235D, G239D, P240D, E269A, H270E, P273G, F330L, A332R, P398Q
light: B1 light
B5: IL6R-BP454/IL6R-L (antibody, human IgG1)
heavy: B2 heavy with E235D, G239D, P240D, E269A, H270E, P273G, F330L, A332R, P398K
light: B1 light
B6: IL6R-BP267/IL6R-LにV264Iの改変が加えられた改変体 (antibody, human IgG1)
heavy: B2 heavy with E235D, G239D, P240D, V266I, E269S, H270E, P273G, F330L
light: B1 light
notes: also called IL6R-BP267 + V264I
B7: IL6R-BP450/IL6R-L (antibody, human IgG1)
heavy: B2 heavy with E235D, G239D, P240D, E269A, H270E, P273G, F330L, A332R, P398F
light: B1 light
B8: IL6R-BP459/IL6R-L (antibody, human IgG1)
heavy: B2 heavy with E235D, G239D, P240D, E269A, H270E, P273G, F330L, A332R, P398R
light: B1 light
B9: IL6R-BP464/IL6R-L (antibody, human IgG1)
heavy: B2 heavy with E235D, G239D, P240D, E269A, H270E, P273G, F330L, A332R, P398Y
light: B1 light
B10: IL6R-BP449/IL6R-L (antibody, human IgG1)
heavy: B2 heavy with E235D, G239D, P240D, E269A, H270E, P273G, F330L, A332R, P398E
light: B1 light
B11: IL6R-BP456/IL6R-L (antibody, human IgG1)
heavy: B2 heavy with E235D, G239D, P240D, E269A, H270E, P273G, F330L, A332R, P398M
light: B1 light
B12: IL6R-BP455/IL6R-L (antibody, human IgG1)
heavy: B2 heavy with E235D, G239D, P240D, E269A, H270E, P273G, F330L, A332R, P398L
light: B1 light
B13: IL6R-BP448/IL6R-L (antibody, human IgG1)
heavy: B2 heavy with E235D, G239D, P240D, E269A, H270E, P273G, F330L, A332R, P398D
light: B1 light
B14: IL6R-BP267/IL6R-LにV266Mの改変が加えられた改変体 (antibody, human IgG1)
heavy: B2 heavy with E235D, G239D, P240D, V268M, E269S, H270E, P273G, F330L
light: B1 light
notes: also called IL6R-BP267 + V266M
B15: IL6R-BP453/IL6R-L (antibody, human IgG1)
heavy: B2 heavy with E235D, G239D, P240D, E269A, H270E, P273G, F330L, A332R, P398I
light: B1 light
B16: IL6R-BP267/IL6R-LにV266Fの改変が加えられた改変体 (antibody, human IgG1)
heavy: B2 heavy with E235D, G239D, P240D, V268F, E269S, H270E, P273G, F330L
light: B1 light
notes: also called IL6R-BP267 + V266F
B17: IL6R-BP479/IL6R-L (antibody)
chain 1: B2 heavy with E235D, G239D, P240D, V266I, V268L, E269A, H270E, P273G, F330L
chain 2: not shown
B18: IL6R-BP234/IL6R-L (antibody)
chain 1: QVQLQESGPGLVKPSETLSLTCAVSGHSISHDHAWSWVRQPPGEGLEWIGFISYSGITNYNPSLQGRVTISRDNSKNTLYLQMNSLRAEDTAVYYCARSLARTTAMDYWGEGTLVTVSSASTKGPSVFPLAPSSKSTSGGTAALGCLVKDYFPEPVTVSWNSGALTSGVHTFPAVLQSSGLYSLSSVVTVPSSSLGTQTYICNVNHKPSNTKVDKKVEPKSCDKTHTCPPCPAPDYLGDDSVFLFPPKPKDTLMISRTPEVTCVVVDVQDEDGEVKFNWYVDGVEVHNAKTKPREEQDNSTYRVVSVLTVLHQDWLNGKEYKCKVSNDALPKPIEKTISKAKGQPREPQVYTLPPSRDELTKNQVSLTCLVKGFYPSDIAVEWESNGQPENNYKTTPPVLDSDGSFFLYSKLTVDKSRWQQGNVFSCSVMHEALHNHYTQESLSLSP
chain 2: not shown
B19: IL6R-BP493/IL6R-L (antibody)
chain 1: B2 heavy with P240D, V266I, E269A, H270E, P273G, Y298D, F330L
chain 2: not shown
B20: IL6R-BP231/IL6R-L (antibody)
chain 1: B18 chain 1 with D235E, Y236L, Q269S, D328K, K332R
chain 2: not shown
B21: IL6R-BP473/IL6R-L (antibody)
chain 1: B18 chain 1 with Y236L, Q269S, D328K, A329G, K332R
chain 2: not shown
B22: mPM1-mIgG1-mF3 (antibody)
heavy: DVQLQESGPVLVKPSQSLSLTCTVTGYSITSDHAWSWIRQFPGNKLEWMGYISYSGITTYNPSLKSRISITRDTSKNQFFLQLNSVTTGDTSTYYCARSLARTTAMDYWGQGTSVTVSSAKTTPPSVYPLAPGSAAQTNSMVTLGCLVKGYFPEPVTVTWNSGSLSSGVHTFPAVLQSDLYTLSSSVTVPSSTWPSETVTCNVAHPASSTKVDKKIVPRDCGCKPCICTVPEVSSVFIFPPKPKDVLYITLEPKVTCVVVDISKDDPEVQFSWFVDDVEVHTAQTQPREEQFNSTFRSVSELPIMHQDWLNGKEFKCRVNSAAFPAPIEKTISKTKGRPKAPQVYTIPPPKEQMAKDKVSLTCMITDFFPEDITVEWQWNGQPAENYKNTQPIMDTDGSYFVYSKLNVQKSNWEAGNTFTCSVLHEGLKFHHTEKSLSHSPGK
light: DIQMTQTTSSLSASLGDRVTISCRASQDISSYLNWYQQKPDGTIKLLIYYTSRLHSGVPSRFSGSGSGTDYSLTINNLEQEDIATYFCQQGNTLPYTFGGGTKLEIKRADAAPTVSIFPPSSEQLTSGGASVVCFLNNFYPKDINVKWKIDGSERQNGVLNSWTDQDSKDSTYSMSSTLTLTKDEYERHNSYTCEATHKTSTSPIVKSFNRNEC
notes: mouse IgG1; also called mPM1H-mIgG1-mF3/mPM1L-mk1
B23: Fv4-IgG1-F20 (antibody)
heavy: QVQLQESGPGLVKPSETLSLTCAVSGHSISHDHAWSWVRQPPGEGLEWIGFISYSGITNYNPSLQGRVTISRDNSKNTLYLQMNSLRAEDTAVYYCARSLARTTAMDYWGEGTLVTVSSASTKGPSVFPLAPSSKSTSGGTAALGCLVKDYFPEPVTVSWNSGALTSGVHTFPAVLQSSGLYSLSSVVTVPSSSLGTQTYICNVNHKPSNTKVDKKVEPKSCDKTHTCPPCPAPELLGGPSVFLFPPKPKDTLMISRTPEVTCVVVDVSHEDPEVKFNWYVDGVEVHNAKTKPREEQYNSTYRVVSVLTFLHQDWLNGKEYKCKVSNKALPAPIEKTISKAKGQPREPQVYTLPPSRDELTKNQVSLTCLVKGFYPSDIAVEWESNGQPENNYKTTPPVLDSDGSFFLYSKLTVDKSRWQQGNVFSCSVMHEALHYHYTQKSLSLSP
light: DIQMTQSPSSLSASVGDSVTITCQASTDISSHLNWYQQKPGKAPELLIYYGSHLLSGVPSRFSGSGSGTDFTFTISSLEAEDAATYYCGQGNRLPYTFGQGTKVEIERTVAAPSVFIFPPSDEQLKSGTASVVCLLNNFYPREAKVQWKVDNALQSGNSQESVTEQDSKDSTYSLSSTLTLSKADYEKHKVYACEVTHQGLSSPVTKSFNRGEC
notes: also called VH3-IgG1-F20/VL3-CK

Target: T1, ヒトFcγRIIa (H)
Assay: SPR, KD

binding result	Binder
binds	B1
binds	B2

Target: ヒトFcγRIa (human, UniProt P12314 16-292)
Sequence (P12314 16-292): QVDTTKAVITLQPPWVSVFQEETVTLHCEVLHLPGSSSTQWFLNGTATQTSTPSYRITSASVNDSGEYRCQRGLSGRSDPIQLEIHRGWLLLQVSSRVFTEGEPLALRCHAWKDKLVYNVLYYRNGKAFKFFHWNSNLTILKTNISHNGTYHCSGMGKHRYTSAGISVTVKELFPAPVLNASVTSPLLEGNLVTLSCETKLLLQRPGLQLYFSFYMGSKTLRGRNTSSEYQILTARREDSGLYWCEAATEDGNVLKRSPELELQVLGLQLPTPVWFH
Assay: SPR, KD

binding result	Binder
binds	B1
binds	B2

Target: T2, ヒトFcγRIIb
Assay: SPR, KD

binding result	Binder
binds	B3
binds	B4
binds	B5
binds	B6
binds	B7
binds	B8
binds	B9
binds	B10
binds	B11
binds	B12
binds	B13
binds	B14
binds	B15
binds	B16

Target: T2, ヒトFcγRIIb
Assay: SPR; KD for FcγRIIaR divided by KD for FcγRIIb

KD (IIaR)/KD (IIb) [ratio]	Binder
16.1	B17
10	B18
52.1	B19
32.2	B20

Target: T2, ヒトFcγRIIb
Assay: SPR, KD; reference IL6R-BP230/IL6R-L

fold enhancement of binding against IL6R-BP230/IL6R-L [fold]	Binder
1.2	B21

Target: T3, マウスFcγRI
Assay: SPR, Biacore; antibody captured on immobilised mouse FcRn, FcγR as analyte, pH 7.4, 25C

binding result	Binder
no binding	B22
binds	B23

Target: T4, マウスFcγRIII
Assay: as above

binding result	Binder
binds	B22
binds	B23

Target: T5, マウスFcγRIIb
Assay: as above

binding result	Binder
binds	B22
binds	B23
